Source: US20240261333A1 (published 2024)

T1: CHCHD3 (human, UniProt Q9NX63 2-227, limits assumed)
T1 construct: also called NP_001304106.1 (+1)
T1 sequence (looked up): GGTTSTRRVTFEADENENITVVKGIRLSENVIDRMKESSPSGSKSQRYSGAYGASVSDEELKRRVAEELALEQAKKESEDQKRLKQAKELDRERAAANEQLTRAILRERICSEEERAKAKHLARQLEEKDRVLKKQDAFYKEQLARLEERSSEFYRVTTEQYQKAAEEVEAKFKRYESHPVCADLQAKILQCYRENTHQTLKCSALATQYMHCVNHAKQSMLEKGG

T2: CALML5 (human, UniProt Q9NZT1 2-146)
T2 construct: also called NP_059118.2
T2 sequence (looked up): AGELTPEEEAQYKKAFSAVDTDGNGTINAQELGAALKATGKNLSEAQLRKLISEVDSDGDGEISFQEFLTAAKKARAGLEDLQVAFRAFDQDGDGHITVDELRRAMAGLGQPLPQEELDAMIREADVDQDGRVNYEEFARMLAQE

T3: SPARC (human, UniProt P09486 18-303)
T3 construct: also called NP_001296372.1 (+1)
T3 sequence (looked up): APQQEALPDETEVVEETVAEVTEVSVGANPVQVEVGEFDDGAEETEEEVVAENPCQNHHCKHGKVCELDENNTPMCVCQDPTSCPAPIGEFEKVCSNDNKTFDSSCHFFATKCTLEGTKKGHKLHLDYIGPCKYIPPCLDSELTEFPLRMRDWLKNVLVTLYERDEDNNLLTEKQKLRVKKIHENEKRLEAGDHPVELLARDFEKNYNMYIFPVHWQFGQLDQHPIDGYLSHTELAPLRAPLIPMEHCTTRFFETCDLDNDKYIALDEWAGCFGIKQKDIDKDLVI

T4: CPSF7 (human, UniProt Q8N684 1-471)
T4 construct: also called NP_001129512.1 (+5)
T4 sequence (looked up): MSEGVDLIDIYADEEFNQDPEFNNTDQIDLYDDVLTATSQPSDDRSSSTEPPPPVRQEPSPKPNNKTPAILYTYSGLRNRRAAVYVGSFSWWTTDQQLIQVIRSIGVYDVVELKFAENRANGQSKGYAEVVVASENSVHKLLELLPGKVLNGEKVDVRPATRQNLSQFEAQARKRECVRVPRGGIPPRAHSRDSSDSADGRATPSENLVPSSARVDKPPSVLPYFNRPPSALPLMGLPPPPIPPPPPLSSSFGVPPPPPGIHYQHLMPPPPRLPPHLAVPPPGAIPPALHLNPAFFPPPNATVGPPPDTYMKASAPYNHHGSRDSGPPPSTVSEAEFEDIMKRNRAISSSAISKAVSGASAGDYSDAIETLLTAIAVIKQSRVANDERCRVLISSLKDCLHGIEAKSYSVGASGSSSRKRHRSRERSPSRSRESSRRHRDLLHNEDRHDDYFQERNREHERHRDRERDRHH

T5: SRSF6 (human, UniProt Q13247 1-344)
T5 construct: also called NP_006266.2
T5 sequence (looked up): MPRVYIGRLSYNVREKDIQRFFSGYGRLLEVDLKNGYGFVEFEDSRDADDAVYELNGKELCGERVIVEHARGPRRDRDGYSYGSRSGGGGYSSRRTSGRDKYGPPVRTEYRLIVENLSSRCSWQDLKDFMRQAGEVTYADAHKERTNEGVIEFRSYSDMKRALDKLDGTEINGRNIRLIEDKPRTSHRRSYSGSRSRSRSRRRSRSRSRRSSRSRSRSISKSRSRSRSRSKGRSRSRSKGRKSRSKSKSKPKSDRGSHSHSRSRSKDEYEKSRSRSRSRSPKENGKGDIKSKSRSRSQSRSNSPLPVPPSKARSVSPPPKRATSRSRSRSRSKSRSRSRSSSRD


Assays:
Experiment in all cases: co-IP with anti-FLAG, N-FLAG B3GNT2, mass spectrometry
[1] = target: T1, CHCHD3
Description: (§1) Cells were plated in 10-cm cell culture dishes and grown to 60-80% confluency. For each condition, two biological replicates were harvested for co-IP. Cells were washed with PBS and 4 mL of lysis buffer (20 mM HEPES, 1% Triton X-100, 150 mM NaCl, 1 mM EDTA, and 10% glycerol) containing protease inhibitor cocktail was added. Cells were scraped and lysate was incubated at 4° C. under rotary agitation for 1 h. Lysate was centrifuged at 14,000×g for 10 min at 4° C. Supernatant was transferred to a new tube and an aliquot was taken as the input. […] For Western blots, 10 μg/mL Chicken Anti-FLAG (Aves labs ET-DY100) and IgY control (R&D Systems AB-101-C) antibodies were biotinylated (Thermo Fisher Scientific 90407) and added to the respective conditions. Lysates with antibodies were incubated at 4° C. under rotary agitation overnight. For each mL of lysate, 50 μL of Pierce Protein A/G Magnetic Beads (Mass spectrometry; Thermo Fisher Scientific 88803) or Pierce Streptavidin Magnetic Beads (Western blot; Thermo Fisher Scientific 88817) was washed twice with lysis buffer. Lysates with antibodies were added to the beads and incubated at 4° C. under rotary agitation for 4 h. Beads were washed with lysis buffer 3 times and resuspended in lysis buffer for storage.
(§2) Magnetic beads were resuspended in 100 mM Tris pH 7.8, reduced, alkylated and digested with trypsin at 37° ° C. overnight. This solution was subjected to solid phase extraction to concentrate the peptides and remove unwanted reagents followed by injection onto a Shimadzu HPLC with fraction collector. Eight fractions were collected and after concentration were injected on a Waters NanoAcquity HPLC equipped with a self-packed Aeris 3 μm C18 analytical column 0.075 mm by 20 cm, (Phenomenex). Peptides were eluted using standard reverse-phase gradients. The effluent from the column was analyzed using a Thermo Orbitrap Elite mass spectrometer (nanospray configuration) operated in a data dependent manner for 54 minutes. The resulting fragmentation spectra were correlated against the known database using Proteome Discover 1.4 (Thermo Fisher Scientific).

[2] = target: T2, CALML5
Description: as §1, §2

[3] = target: T6, YBX1 (human, UniProt P67809 2-324)
T6 construct: also called NP_004550.2
Description: as §1, §2

[4] = target: T7, LAMC1 (human, UniProt P11047 34-1609)
T7 construct: also called NP_002284.3
Description: as §1, §2

[5] = target: T3, SPARC
Description: as §1, §2

[6] = target: T4, CPSF7
Description: as §1, §2

[7] = target: T5, SRSF6
Description: as §1, §2

[8] = target: T8, CLTC (human, UniProt Q00610 2-1675, limits assumed)
T8 construct: also called NP_001275582.1 (+2)
Description: as §1, §2

T7 sequence (P11047 34-1609 limits assumed): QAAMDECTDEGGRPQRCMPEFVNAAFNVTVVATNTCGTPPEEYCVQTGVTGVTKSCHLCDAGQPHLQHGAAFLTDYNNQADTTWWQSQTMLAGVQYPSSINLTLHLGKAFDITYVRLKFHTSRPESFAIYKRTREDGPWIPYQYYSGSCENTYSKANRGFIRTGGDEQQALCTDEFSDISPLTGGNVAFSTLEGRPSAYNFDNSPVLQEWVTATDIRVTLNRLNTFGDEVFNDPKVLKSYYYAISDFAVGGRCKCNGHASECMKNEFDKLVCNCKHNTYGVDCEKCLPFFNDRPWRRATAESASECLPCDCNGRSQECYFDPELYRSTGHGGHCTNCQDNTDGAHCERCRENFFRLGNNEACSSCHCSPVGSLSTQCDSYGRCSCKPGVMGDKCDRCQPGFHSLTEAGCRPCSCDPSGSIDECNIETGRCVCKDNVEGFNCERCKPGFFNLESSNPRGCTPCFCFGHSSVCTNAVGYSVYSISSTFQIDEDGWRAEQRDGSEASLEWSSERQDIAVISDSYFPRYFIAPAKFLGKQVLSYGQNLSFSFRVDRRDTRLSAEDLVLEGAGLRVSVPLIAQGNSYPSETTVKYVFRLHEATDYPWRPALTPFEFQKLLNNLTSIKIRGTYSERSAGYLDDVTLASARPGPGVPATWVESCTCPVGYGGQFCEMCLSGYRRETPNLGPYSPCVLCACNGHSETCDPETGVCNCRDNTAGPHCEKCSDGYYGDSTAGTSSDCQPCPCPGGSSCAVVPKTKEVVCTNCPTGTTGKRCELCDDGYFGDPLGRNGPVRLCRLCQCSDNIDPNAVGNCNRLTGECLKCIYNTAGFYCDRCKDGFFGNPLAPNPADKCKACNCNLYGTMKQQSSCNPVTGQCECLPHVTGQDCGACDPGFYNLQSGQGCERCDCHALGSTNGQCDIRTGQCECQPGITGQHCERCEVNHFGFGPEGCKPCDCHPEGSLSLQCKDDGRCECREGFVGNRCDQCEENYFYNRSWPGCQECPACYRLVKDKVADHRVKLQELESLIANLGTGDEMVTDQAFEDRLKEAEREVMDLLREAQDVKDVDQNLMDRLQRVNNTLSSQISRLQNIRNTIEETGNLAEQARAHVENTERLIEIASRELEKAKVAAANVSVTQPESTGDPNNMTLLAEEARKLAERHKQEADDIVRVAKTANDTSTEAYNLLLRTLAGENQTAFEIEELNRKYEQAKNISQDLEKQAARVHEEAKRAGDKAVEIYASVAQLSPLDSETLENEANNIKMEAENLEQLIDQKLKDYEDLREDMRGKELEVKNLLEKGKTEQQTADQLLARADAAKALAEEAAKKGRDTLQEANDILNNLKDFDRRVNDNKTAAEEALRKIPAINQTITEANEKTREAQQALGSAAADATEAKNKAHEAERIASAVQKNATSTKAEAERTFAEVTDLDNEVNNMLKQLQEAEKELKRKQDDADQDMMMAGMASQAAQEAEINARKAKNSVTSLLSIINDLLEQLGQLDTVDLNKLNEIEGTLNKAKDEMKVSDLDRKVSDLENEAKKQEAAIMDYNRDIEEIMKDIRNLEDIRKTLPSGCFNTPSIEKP
T8 sequence (Q00610 2-1675 limits assumed): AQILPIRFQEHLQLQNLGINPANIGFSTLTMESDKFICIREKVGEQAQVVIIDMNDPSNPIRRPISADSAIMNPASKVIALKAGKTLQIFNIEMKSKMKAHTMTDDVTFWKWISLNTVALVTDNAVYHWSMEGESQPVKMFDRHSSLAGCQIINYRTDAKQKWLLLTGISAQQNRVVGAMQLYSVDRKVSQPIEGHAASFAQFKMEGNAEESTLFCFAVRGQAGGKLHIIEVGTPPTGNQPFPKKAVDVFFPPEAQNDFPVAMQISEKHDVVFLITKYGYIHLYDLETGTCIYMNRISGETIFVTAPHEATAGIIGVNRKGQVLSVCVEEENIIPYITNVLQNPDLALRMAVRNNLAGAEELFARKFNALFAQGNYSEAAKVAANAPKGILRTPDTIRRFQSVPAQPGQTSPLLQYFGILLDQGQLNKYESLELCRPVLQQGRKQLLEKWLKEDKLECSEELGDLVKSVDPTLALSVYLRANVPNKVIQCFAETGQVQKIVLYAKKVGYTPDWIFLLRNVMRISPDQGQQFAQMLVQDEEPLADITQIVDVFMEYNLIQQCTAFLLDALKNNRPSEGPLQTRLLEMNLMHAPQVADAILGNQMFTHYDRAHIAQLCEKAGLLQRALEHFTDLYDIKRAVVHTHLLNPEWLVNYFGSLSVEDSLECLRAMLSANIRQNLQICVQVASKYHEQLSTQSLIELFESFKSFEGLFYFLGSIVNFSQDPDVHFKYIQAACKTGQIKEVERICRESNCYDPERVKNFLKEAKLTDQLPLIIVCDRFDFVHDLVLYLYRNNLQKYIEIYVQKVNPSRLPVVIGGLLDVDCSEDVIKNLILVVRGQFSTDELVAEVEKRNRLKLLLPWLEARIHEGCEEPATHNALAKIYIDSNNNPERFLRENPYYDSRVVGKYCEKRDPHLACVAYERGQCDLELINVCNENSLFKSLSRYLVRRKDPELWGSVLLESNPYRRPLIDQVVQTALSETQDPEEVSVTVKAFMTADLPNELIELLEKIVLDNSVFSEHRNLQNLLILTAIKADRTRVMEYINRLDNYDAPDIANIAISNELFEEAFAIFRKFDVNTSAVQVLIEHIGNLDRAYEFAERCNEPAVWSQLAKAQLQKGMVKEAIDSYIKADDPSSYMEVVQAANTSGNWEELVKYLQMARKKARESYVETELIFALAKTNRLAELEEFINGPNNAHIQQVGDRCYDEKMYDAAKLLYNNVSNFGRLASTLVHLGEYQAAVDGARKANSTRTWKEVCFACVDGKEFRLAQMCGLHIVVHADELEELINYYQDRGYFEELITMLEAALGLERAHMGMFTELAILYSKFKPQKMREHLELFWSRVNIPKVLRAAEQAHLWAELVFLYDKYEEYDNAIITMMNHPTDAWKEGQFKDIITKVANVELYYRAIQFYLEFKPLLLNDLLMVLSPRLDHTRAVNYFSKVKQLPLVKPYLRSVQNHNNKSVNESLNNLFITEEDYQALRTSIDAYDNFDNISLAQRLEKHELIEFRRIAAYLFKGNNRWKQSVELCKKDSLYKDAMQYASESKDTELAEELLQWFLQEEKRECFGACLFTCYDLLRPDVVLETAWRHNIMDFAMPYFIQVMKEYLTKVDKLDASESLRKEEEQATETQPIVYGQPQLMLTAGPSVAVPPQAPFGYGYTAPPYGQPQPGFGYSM
T6 sequence (P67809 2-324 limits assumed): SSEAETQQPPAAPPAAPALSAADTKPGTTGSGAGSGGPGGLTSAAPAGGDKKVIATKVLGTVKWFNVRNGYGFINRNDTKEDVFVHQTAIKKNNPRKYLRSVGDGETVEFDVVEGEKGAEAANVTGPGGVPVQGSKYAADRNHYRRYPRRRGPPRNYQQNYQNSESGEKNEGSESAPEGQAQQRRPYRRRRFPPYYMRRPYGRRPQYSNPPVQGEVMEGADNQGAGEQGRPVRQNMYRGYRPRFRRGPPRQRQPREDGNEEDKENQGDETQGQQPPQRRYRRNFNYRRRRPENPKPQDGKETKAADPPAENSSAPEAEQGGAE

| co-IP mass spectrometry count [1] | co-IP mass spectrometry count [2] | co-IP mass spectrometry count [3] | co-IP/MS count, N-term FLAG [4] | co-IP/MS count, N-term FLAG [5] | co-IP/MS count, N-term FLAG [6] | co-IP/MS count, N-term FLAG [7] | co-IP/MS count, N-term FLAG [8] | Binder |
| --- | --- | --- | --- | --- | --- | --- | --- | --- |
| 16 | 0 | 2 |  |  |  |  |  | N-terminal FLAG tagged B3GNT2 (enzyme, human, UniProt Q9NY97 1-397, looked up, FLAG-tagged ORF overexpressed in cells; pulled down from lysate with mouse anti-FLAG; also called N-FLAG B3GNT2; N-term FLAG; not shown: N-terminal FLAG tag) MSVGRRRIKLLGILMMANVFIYFIMEVSKSSSQEKNGKGEVIIPKEKFWKISTPPEAYWNREQEKLNRQYNPILSMLTNQTGEAGRLSNISHLNYCEPDLRVTSVVTGFNNLPDRFKDFLLYLRCRNYSLLIDQPDKCAKKPFLLLAIKSLTPHFARRQAIRESWGQESNAGNQTVVRVFLLGQTPPEDNHPDLSDMLKFESEKHQDILMWNYRDTFFNLSLKEVLFLRWVSTSCPDTEFVFKGDDDVFVNTHHILNYLNSLSKTKAKDLFIGDVIHNAGPHRDKKLKYYIPEVVYSGLYPPYAGGGGFLYSGHLALRLYHITDQVHLYPIDDVYTGMCLQKLGLVPEKHKGFRTFDIEEKNKNNICSYVDLMLVHSRKPQEMIDIWSQLQSAHLKC |
|  |  |  | 0 | 0 | 12 | 6 | 6 | N-terminal FLAG tagged B3GNT2 (enzyme, human, UniProt Q9NY97 1-397, looked up, FLAG-tagged ORF overexpressed in A375 cells; pulled down from the lysate with mouse anti-FLAG; also called N-FLAG B3GNT2; N-term FLAG; not shown: N-terminal FLAG tag) MSVGRRRIKLLGILMMANVFIYFIMEVSKSSSQEKNGKGEVIIPKEKFWKISTPPEAYWNREQEKLNRQYNPILSMLTNQTGEAGRLSNISHLNYCEPDLRVTSVVTGFNNLPDRFKDFLLYLRCRNYSLLIDQPDKCAKKPFLLLAIKSLTPHFARRQAIRESWGQESNAGNQTVVRVFLLGQTPPEDNHPDLSDMLKFESEKHQDILMWNYRDTFFNLSLKEVLFLRWVSTSCPDTEFVFKGDDDVFVNTHHILNYLNSLSKTKAKDLFIGDVIHNAGPHRDKKLKYYIPEVVYSGLYPPYAGGGGFLYSGHLALRLYHITDQVHLYPIDDVYTGMCLQKLGLVPEKHKGFRTFDIEEKNKNNICSYVDLMLVHSRKPQEMIDIWSQLQSAHLKC |
